Results reported in publication PMC7570948 (2020).
Each block holds one binder with its values, some of them ahead of it.

Key:
[1] = target: T1, CCR7-eGFP stably expressed on 300-19 pre-B cells (human, UniProt P32248 25-378); assay: FACS; 37°C, competition with 25 nM CCL19-Dy649P1 (printed as EC50; partial inhibition)
T1 chain: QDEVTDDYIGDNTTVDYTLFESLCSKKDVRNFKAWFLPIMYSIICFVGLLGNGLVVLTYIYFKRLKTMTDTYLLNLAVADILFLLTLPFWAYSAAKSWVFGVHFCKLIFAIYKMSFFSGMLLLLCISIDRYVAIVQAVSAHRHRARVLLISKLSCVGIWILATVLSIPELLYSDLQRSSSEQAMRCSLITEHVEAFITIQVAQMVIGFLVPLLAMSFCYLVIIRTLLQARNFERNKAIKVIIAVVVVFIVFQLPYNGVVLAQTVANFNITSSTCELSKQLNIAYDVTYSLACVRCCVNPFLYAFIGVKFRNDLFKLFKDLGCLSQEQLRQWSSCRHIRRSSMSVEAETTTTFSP

[2] = target: T1, CCR7-eGFP stably expressed on 300-19 …; assay: FACS; 37°C, competition with 25 nM CCL19-Dy649P1 (printed as EC50)
[3] = target: T1, CCR7-eGFP stably expressed on 300-19 …; assay: FACS; 10°C, competition with 25 nM CCL19-Dy649P1 (printed as EC50)

IC50 [1]: 9.2 nM
B1: CXCL14 (synthetic, unlabeled human CXCL14) (ligand)
chain: SKCKCSRKGPKIRYSDVKKLEMKPKYPHCEEKMVIITTKSVSRYRGQEHCLHPKLQSTKRFIKWYNAWNEKRRVYEE

IC50 [2]: 14.1 nM
IC50 [3]: 10.1 nM
B2: CCL19 (synthetic, unlabeled human CCL19) (ligand)
chain: GTNDAEDCCLSVTQKPIPGYIVRNFHYLLIKDGCRVPAVVFTTLRGRQLCAPPDQPWVERIIQRLQRTSAKMKRRSS
